# Measured values from IntAct's records for PubMed 31515488.
# B1: Spindle and kinetochore-associated protein 3 (Homo sapiens), Q8IX90 (parent)
# chain: MDPIRSFCGKLRSLASTLDCETARLQRALDGEESDFEDYPMRILYDLHSEVQTLKDDVNILLDKARLENQEGIDFIKATKVLMEKNSMDIMKIREYFQKYGYSPRVKKNSVHEQEAINSDPELSNCENFQKTDVKDDLSDPPVASSCISEKSPRSPQLSDFGLERYIVSQVLPNPPQAVNNYKEEPVIVTPPTKQSLVKVLKTPKCALKMDDFECVTPKLEHFGISEYTMCLNEDYTMGLKNARNNKSEEAIDTESRLNDNVFATPSPIIQQLEKSDAEYTNSPLVPTFCTPGLKIPSTKNSIALVSTNYPLSKTNSSSNDLEVEDRTSLVLNSDTCFENLTDPSSPTISSYENLLRTPTPPEVTKIPEDILQLLSKYNSNLATPIAIKAVPPSKRFLKHGQNIRDVSNKEN
# B2: Keratin-associated protein 5-9 (Homo sapiens), P26371 (parent)
# chain: MGCCGCSGGCGSSCGGCDSSCGSCGSGCRGCGPSCCAPVYCCKPVCCCVPACSCSSCGKRGCGSCGGSKGGCGSCGCSQCSCCKPCCCSSGCGSSCCQCSCCKPYCSQCSCCKPCCSSSGRGSSCCQSSCCKPCCSSSGCGSSCCQSSCCKPCCSQSRCCVPVCYQCKI
# partner: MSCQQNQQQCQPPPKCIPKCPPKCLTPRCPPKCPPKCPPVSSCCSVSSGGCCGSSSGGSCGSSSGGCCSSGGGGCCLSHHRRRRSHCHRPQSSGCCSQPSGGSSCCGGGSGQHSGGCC
# B3: U3 small nucleolar RNA-associated protein 14 homolog A (Homo sapiens), Q9BVJ6 (parent)
# chain: MTANRLAESLLALSQQEELADLPKDYLLSESEDEGDNDGERKHQKLLEAISSLDGKNRRKLAERSEASLKVSEFNVSSEGSGEKLVLADLLEPVKTSSSLATVKKQLSRVKSKKTVELPLNKEEIERIHREVAFNKTAQVLSKWDPVVLKNRQAEQLVFPLEKEEPAIAPIEHVLSGWKARTPLEQEIFNLLHKNKQPVTDPLLTPVEKASLRAMSLEEAKMRRAELQRARALQSYYEAKARREKKIKSKKYHKVVKKGKAKKALKEFEQLRKVNPAAALEELEKIEKARMMERMSLKHQNSGKWAKSKAIMAKYDLEARQAMQEQLSKNKELTQKLQVASESEEEEGGTEDVEELLVPDVVNEVQMNADGPNPWMLRSCTSDTKEAATQEDPEQLPELEAHGVSESEGEERPVAEEEILLREFEERRSLRKRSELSQDAEPAGSQETKDSGSQEVLSELRVLSQKLKENHQSRKQKASSEGTIPQVQREEPAPEEEEPLLLQRPERVQTLEELEELGKEECFQNKELPRPVLEGQQSERTPNNRPDAPKEKKKKEQMIDLQNLLTTQSPSVKSLAVPTIEELEDEEERNHRQMIKEAFAGDDVIRDFLKEKREAVEASKPKDVDLTLPGWGEWGGVGLKPSAKKRRRFLIKAPEGPPRKDKNLPNVIINEKRNIHAAAHQVRVLPYPFTHHWQFERTIQTPIGSTWNTQRAFQKLTTPKVVTKPGHIINPIKAEDVGYRSSSRSDLSVIQRNPKRITTRHKKQLKKCSVD
# B4: Progranulin (Homo sapiens), P28799 (parent)
# chain: MWTLVSWVALTAGLVAGTRCPDGQFCPVACCLDPGGASYSCCRPLLDKWPTTLSRHLGGPCQVDAHCSAGHSCIFTVSGTSSCCPFPEAVACGDGHHCCPRGFHCSADGRSCFQRSGNNSVGAIQCPDSQFECPDFSTCCVMVDGSWGCCPMPQASCCEDRVHCCPHGAFCDLVHTRCITPTGTHPLAKKLPAQRTNRAVALSSSVMCPDARSRCPDGSTCCELPSGKYGCCPMPNATCCSDHLHCCPQDTVCDLIQSKCLSKENATTDLLTKLPAHTVGDVKCDMEVSCPDGYTCCRLQSGAWGCCPFTQAVCCEDHIHCCPAGFTCDTQKGTCEQGPHQVPWMEKAPAHLSLPDPQALKRDVPCDNVSSCPSSDTCCQLTSGEWGCCPIPEAVCCSDHQHCCPQGYTCVAEGQCQRGSEIVAGLEKMPARRASLSHPRDIGCDQHTSCPVGQTCCPSLGGSWACCQLPHAVCCEDRQHCCPAGYTCNVKARSCEKEVVSAQPATFLARSPHVGVKDVECGEGHFCHDNQTCCRDNRQGWACCPYRQGVCCADRRHCCPAGFRCAARGTKCLRREAPRWDAPLRDPALRQLL
# partner: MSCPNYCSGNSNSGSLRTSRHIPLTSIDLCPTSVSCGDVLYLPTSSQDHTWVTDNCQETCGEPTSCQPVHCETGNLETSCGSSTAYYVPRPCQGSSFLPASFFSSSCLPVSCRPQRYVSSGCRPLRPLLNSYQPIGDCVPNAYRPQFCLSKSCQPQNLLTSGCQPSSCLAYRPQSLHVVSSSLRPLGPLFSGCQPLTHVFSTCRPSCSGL
# B5: Tetratricopeptide repeat protein 5 (Homo sapiens), Q8N0Z6 (parent)
# chain: MMADEEEEVKPILQKLQELVDQLYSFRDCYFETHSVEDAGRKQQDVQKEMEKTLQQMEEVVGSVQGKAQVLMLTGKALNVTPDYSPKAEELLSKAVKLEPELVEAWNQLGEVYWKKGDVAAAHTCFSGALTHCRNKVSLQNLSMVLRQLRTDTEDEHSHHVMDSVRQAKLAVQMDVHDGRSWYILGNSYLSLYFSTGQNPKISQQALSAYAQAEKVDRKASSNPDLHLNRATLHKYEESYGEALEGFSRAAALDPAWPEPRQREQQLLEFLDRLTSLLESKGKVKTKKLQSMLGSLRPAHLGPCSDGHYQSASGQKVTLELKPLSTLQPGVNSGAVILGKVVFSLTTEEKVPFTFGLVDSDGPCYAVMVYNIVQSWGVLIGDSVAIPEPNLRLHRIQHKGKDYSFSSVRVETPLLLVVNGKPQGSSSQAVATVASRPQCE
# Variants of: B1
# Conditions: with ska1_human SKA1, Q96BD8
# Chain of ska1_human SKA1, Q96BD8 (Q96BD8 whole entry): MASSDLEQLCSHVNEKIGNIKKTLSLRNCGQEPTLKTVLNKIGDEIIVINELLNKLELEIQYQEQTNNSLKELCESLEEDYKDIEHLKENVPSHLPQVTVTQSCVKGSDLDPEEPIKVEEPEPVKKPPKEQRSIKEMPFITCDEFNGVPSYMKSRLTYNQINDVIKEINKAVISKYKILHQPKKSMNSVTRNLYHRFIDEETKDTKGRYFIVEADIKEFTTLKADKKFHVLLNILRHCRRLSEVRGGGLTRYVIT
row,Variant,effect of a mutation on the interaction
1,A28V,with no effect
2,V187I,with no effect
3,T254A,with no effect

# Second part, the variant after the results:
row,effect of a mutation on the interaction,Variant
1,with no effect,D335E
2,with no effect,T348M
3,with no effect,R396M

# Variants of: B2
# Conditions: with lce1b_human LCE1B
row,Variant,effect of a mutation on the interaction
1,Y40C,with no effect

# Variants of: B3
# Conditions: with ldoc1_human LDOC1, O95751
# Chain of ldoc1_human LDOC1, O95751 (O95751 whole entry): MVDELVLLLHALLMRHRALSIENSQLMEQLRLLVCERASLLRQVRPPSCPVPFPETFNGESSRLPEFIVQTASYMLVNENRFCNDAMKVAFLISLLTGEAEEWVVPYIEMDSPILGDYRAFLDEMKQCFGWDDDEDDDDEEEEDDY
row,Variant,effect of a mutation on the interaction
1,V487A,with no effect
2,T579A,with no effect

# Variants of: B3
# Conditions: with cep70_human CEP70, Q8NHQ1
# Chain of cep70_human CEP70, Q8NHQ1 (Q8NHQ1 whole entry): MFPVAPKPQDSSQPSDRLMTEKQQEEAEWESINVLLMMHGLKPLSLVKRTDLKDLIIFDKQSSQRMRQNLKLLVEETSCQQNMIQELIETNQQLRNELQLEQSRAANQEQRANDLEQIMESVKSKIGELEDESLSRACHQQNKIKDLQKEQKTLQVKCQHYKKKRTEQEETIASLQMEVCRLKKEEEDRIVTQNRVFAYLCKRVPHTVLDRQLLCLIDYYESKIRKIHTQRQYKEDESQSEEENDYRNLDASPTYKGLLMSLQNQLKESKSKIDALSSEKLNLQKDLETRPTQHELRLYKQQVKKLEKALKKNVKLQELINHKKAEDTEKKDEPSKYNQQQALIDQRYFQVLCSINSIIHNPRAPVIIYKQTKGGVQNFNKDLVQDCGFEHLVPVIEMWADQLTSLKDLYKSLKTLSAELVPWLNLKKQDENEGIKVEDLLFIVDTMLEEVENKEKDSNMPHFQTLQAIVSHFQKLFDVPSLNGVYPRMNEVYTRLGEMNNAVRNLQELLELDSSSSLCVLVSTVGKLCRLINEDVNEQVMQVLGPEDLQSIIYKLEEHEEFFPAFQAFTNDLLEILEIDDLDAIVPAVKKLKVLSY
row,Variant,effect of a mutation on the interaction
1,V256M,with no effect

# Variants of: B4
# Conditions: with kr261_human KRTAP26-1, Q6PEX3
row,Variant,effect of a mutation on the interaction
1,D536E,with no effect

# Variants of: B5
# Conditions: with kcc2d_human CAMK2D
row,Variant,effect of a mutation on the interaction
1,G424V,with no effect
